Two molecules from paper PMC8855348 can be followed below.

The data set addresses T1, RAD51AP1 WT (UniProt Q96B01 1-352).
T1 sequence: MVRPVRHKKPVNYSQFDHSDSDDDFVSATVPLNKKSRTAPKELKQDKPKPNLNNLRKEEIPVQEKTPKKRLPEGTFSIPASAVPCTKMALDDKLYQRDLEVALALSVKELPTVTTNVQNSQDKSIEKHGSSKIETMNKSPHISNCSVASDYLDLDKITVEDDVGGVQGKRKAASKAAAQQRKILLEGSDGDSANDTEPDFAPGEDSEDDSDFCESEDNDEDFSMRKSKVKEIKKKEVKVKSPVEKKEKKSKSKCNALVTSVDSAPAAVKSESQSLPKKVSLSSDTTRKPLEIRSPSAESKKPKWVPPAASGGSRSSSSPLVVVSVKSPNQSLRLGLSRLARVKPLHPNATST
The experiment in a line: EMSA.

B1: 50-nt DNA-RNA hybrid (DNA:RNA)
DNA: ATCATCACCATAACGTCGATGTATCAACTTCGATTAGTCACACCAATTAA
RNA: UUAAUUGGUGUGACUAAUCGAAGUUGAUACAUCGACGUUAUGGUGAUGAU
Take B1: the binding result is on record as “binds”.

B2: 63-nt ssRNA (ssRNA)
RNA: AACUUGGUCUGACAGUUACCAAUGCUUAAUCAGUGAGGCACCUAUCUCAGCGAUCUGUCUAUU
In the case of B2, the binding result was “binds”.
